According to US9119806B2, “Culturing circular ssDNA viruses for the production of vaccines” (priority 2007, dated 2015):

What was measured:
Format in all cases: cell-based, Porcine circovirus 2
[1] = test system: PCV2 strain Stoon-1010 in PK-15 cells; assay: Progeny PCV2 production in PK-15 cells with acidification inhibitors and/or IFN-gamma; conditions: IFN-gamma 500 U/ml pre-treatment
Experimental: For progeny virus production assays, 2×10^5 cells were seeded in every well of 24-well cell culture plates. Cells were pre-treated with or without 500 U/ml IFN-gamma at 6 hours post seeding. At 24 h post-seeding, cells were washed and inoculated with the prototype PCV2 strain Stoon-1010 at an m.o.i. of 0.3 for 1 hour at 37° C. The viral inoculum was washed-off and cells were further incubated in 1 ml of culture medium with or without 25 mM ammonium chloride, 125 μM chloroquine diphosphate and/or 6 μM monensin for 24 hours. Then, the culture medium with or without endosomal-lysosomal system acidification inhibitors was replaced with fresh culture medium without inhibitors. At 1, 24, 48 and 72 hours post-inoculation the supernatant was collected. Subsequently the culture was washed once with 1 ml PBS. Both the supernatant and the washing fluid were centrifuged for 10 minutes at 15,000×g to pellet cells and debris. The centrifuged supernatant and washing fluids were combined and considered to contain the extracellular virus. Both pellets and cell cultures were freeze-thawed three times and considered to contain the intracellular virus. Intra- and extracellular virus titres were determined by titration on PCV-negative PK-15 cells as described previously. Viral antigens were detected using an IPMA as described above and PCV2 titre was expressed as log10 TCID50 per 10^5 cells.

[2] = test system: PCV2-infected PK-15 cells; assay: Number of PCV2-infected PK-15 cells (IPMA) after treatment with cytokines or natural cytokine sources; conditions: for increase in PCV2-positive cells / lowest concentration inducing a significant effect on PCV2-positive cells: PK-15
Experimental: PK-15 cells were seeded and maintained in culture medium containing 5%-10% fetal bovine serum (FBS), 0.3 mg/ml glutamine, 100 U/ml penicillin, 0.1 mg/ml streptomycin, 0.1 mg/ml kanamycin dissolved in minimal essential medium (MEM) (Gibco BRL®, Grand Island, USA) or dissolved in RPMI-1640 (GIBCO BRL®, Grand Island, USA) containing 1% nonessential amino acids (100×; GIBCO BRL®, Grand Island, USA) and 1 mM sodium pyruvate (GIBCO BRL®, Grand Island, USA). Cells were seeded at a concentration of 150,000 cells per ml of medium. For the detection of total viral antigen positive cells, the cells were seeded in 96-well microtiter plates (Nunc) (15,000-20,000 cells per well). To detect the expression of specific viral antigens, cells were seeded on sterile cover slips in Leighton tubes (150,000 cells per tube) and finally progeny virus production assays were performed in 24-well plates containing […].
In order to use cells, more related to the target cells in vivo, the monocytic cell line 3D4/31 was used to confirm the effect of the different cytokines on the number of PCV2-infected cells. The 3D4/31 cell line is a porcine monomyeloid cell lines that was established following transfection of primary porcine alveolar macrophage cultures with plasmid pSV3neo, carrying genes for neomycin resistance and SV40 large T antigen. (Weingartl et al. (2002) J Virol Methods. 10, 203-216). These cells were maintained in a 1:1 mixture of RPMI-1640 (Invitrogen) and DMEM (Invitrogen) supplemented with 10% fetal bovine serum, 0.3 mg/ml glutamine, 100 U/ml penicillin, 0.1 mg/ml streptomycin, 0.1 mg/ml kanamycin and 1% non-essential amino acids 100× (GIBCO BRL®, Grand Island, USA). These experiments were also performed in 96-well plates containing the same number of cells. Furthermore, to monitor the effect of IFN-gamma on the entry of PCV2 virion-like particles was determined, 3D4/31 cells were seeded at 2×10^5 cells/ml of medium onto microscopic slides mounted with an 8 well cell culture silicone chamber (Vivascience AG, Hanover). In all inoculations, the same PCV2-strain (Stoon-1010) was used at a multiplicity of infection of 0.01. The virus was diluted in MEM and inoculated on the cell cultures by incubating cells and virus for 1 hour at 37° C. After 1 hour, the inoculum was removed, the cultures were washed twice with MEM and new culture medium was added.
The influence of the cytokines on the infection of PCV2 in PK-15 and 3D4/31 cells was determined by adding two-fold-dilution series of the cytokines to the medium of the cells before, during or after the inoculation. IL-1, IL-6, […] and IFN-alpha were used in concentrations ranging from 0.25-250 Units/ml (U/ml), IFN-gamma was used in concentrations ranging from 0.25-1000 U/ml and IL-10 was used in concentrations from 0.13-125 U/ml. Cell cultures were either pre-treated with the cytokines for 24 hours before inoculation, treated during the inoculation or the cytokines were added in the medium after the inoculation. After 36 hours of incubation at 37° C. in an environment supplemented with 5% CO2, the cells were fixed by drying and frozen at −20° C. The plates were stained with an immuno-peroxydase monolayer assay (IPMA) as described by Sanchez et al. (2003, Vet Microbiol 95, 15-25) and the number of PCV2-positive cells was counted by light microscopy. In each plate a control was inoculated with an equal dose of mock-treated PCV2 (treated with MEM without cytokines). The number of infected cells in this well was used as the reference and all results were expressed as a ratio to this reference.
Two-fold dilutions of the BAL-fluids of the PRCV and mock-inoculated pigs were added to the medium of PCV2-inoculated PK-15 cells after inoculation. Concentrations of the added BAL-fluids ranged from 1.25 to 5%. Supernatants of ConA and mock-stimulated PBMC's were also added to the culture medium of PK-15 cells after inoculation in concentrations ranging from […] to 50%. […]

[3] = test system: PCV2 capsids on 3D4/31 cells; assay: Attachment of PCV2 capsids (virion-like particles) on 3D4/31 cells; conditions: 4° C., 0-60 minutes
Experimental: The attachment of PCV2 capsids onto untreated 3D4/31 cells and 3D4/31 cells pre-treated with IFN-gamma was studied as described by Misinzo et al. (J Gen Virol. conditionally accepted for publication). Briefly, treated and untreated 3D4/31 cells were chilled on ice and washed before PCV2 capsids were added and allowed to attach for 0, 1, 5, 10, 15, 30 and 60 minutes at 4° C. Unbound PCV2 capsids were washed-off and cells were fixed with 3% (w/v) paraformaldehyde in phosphate-buffered saline with calcium and magnesium (PBS+) at room temperature for 10 minutes. In order to stain the PCV2 capsids, cells were incubated with biotin-conjugated anti-PCV2 swine polyclonal antibodies and streptavidin-FITC (Molecular Probes, Leiden, The Netherlands) for 1 hour at room temperature. The slides were mounted and analysed by acquisition of digital images of stained PCV2 capsids using a Leica TCS SP2 laser scanning spectral confocal system (Leica Microsystems GmbH, Heidelberg, Germany) linked to a Leica DM/IRB inverted microscope (Leica Microsystems GmbH, Wetzlar, Germany). Successive images from the apex to the base of a single cell were taken and merged. The number of PCV2 capsids attached per cell was counted for ten cells at each time point to establish their binding kinetics into 3D4/31 cells.

B1: IFN-gamma: Porcine interferon gamma purchased from R&D systems (protein, UniProt P17803 24-166, looked up)
Interferon gamma: QAPFFKEITILKDYFNASTSDVPNGGPLFLEILKNWKEESDKKIIQSQIVSFYFKFFEIFKDNQAIQRSMDVIKQDMFQRFLNGSSGKLNDFEKLIKIPVDNLQIQRKAISELIKVMNDLSPRSNLRKRKRSQTMFQGQRASK
[1]; 1 hpi
  PCV2 titres at 1 hpi: 2.0 TCID50 per 10^5 cells
[1]; 24 hpi
  PCV2 titres at 24 hpi: 2.1 TCID50 per 10^5 cells
[1]; 48 hpi
  PCV2 titres at 48 hpi: 3.4 TCID50 per 10^5 cells
[1]; 72 hpi
  PCV2 titres at 72 hpi: 3.9 TCID50 per 10^5 cells
[2]; 1000 U/ml added after inoculation
  increase in PCV2-positive cells: 791±105%
[2]; 1000 U/ml added before inoculation
  increase in PCV2-positive cells: 518±134%
[2]; 1000 U/ml added during inoculation
  increase in PCV2-positive cells: 270±57%
[2]; administered after inoculation
  lowest concentration inducing a significant effect on PCV2-positive cells: 2 U/ml
[2]; administered before inoculation
  lowest concentration inducing a significant effect on PCV2-positive cells: 16 U/ml
[2]; administered during inoculation
  lowest concentration inducing a significant effect on PCV2-positive cells: 2 U/ml
[2]; PK-15 cells, cytokine dilution series, before, during or after inoculation, 36 h
  change in the number of PCV2-positive cells (in words): dose-dependent increase
[3]
  number of attached virion-like particles per cell and binding kinetics (in words): No differences were observed
